The values that follow come from article PMC6398482.

The target in this assay is Taxol-stabilised microtubules of Rhodamine-labelled tubulin (porcine) (UniProt P02550). The assay is described as follows: confocal microscopy of purified proteins; Taxol-stabilised MT seeds incubated with GFP–PLK4 (1 µM) for 15 min at 37°C, mounted on a slide; condensates associated with MTs counted (N=3, n=100 spots/condition).

B1: GFP-tagged Xenopus PLK4 (wild type) (enzyme)
chain: MAGSIGERREDFKVLNLLGKGSFACVYRAQSINTGIDVAIKMIDKKAMQKVGMVQRVRNEVEIHCQLKHPSILELYNYFEDSNYVYLILEMCHNGEVNRYLKNRKKPFAEDEARHFMHQIVTGMLYLHSHGILHRDLTLSNLLLSSDMNIKIADFGLATQLKMPNEKHFTMCGTPNYIAPEIATRSAHGLESDVWSLGCMLYTFLVGRPPFDTDTVKNTLNKIVLADYEMPDFVSREAKDLIFQLLRKNPADRLSLSSVLDHAFMTGFSNVQSKVMGAVEDSMDSGHATISTGFTGSSGVSISGRFQEKRILSGPSLPNKVNIFQFKDKHPTERSNGGSFHNTQRENNDFSEGNGRKPVACEDRPHSRYLRRAHSSDRSGTSQSQTYAKPSSYSERCHSVEMLAKPTHLKGYRTSSPPNSYGDIPQMFTDERSLERHTSPPVKEKTPSEFMGPAKQTAPRSNDKAETVQQWFGAMQLNGQFKNTPDTSSVSNMGGDFYSQQATQNGAPQYAWNDVKRKKNTDSSIESVLLGIKKNPGTGQRKAEKSQFGEQSKSRVPQQAFGSSTLRSIISPLNAERLKPIRQKTKNAVVSILESGEVCMEFLKEQNSQERVKEVLRISCDGNLIYVYHPNEGKGFPLVDRPPSPPENRLSYTFDSLPEKYWKKYQYAAKFIKLVRSKTPKVTYYTRYAKCMLMENSPTADVEVCFYDGAKIHKTSDVIRVIEKSGRSYTLEGSRLSTLSDEVRSYLDHANESHCVCLSLESAINTEEKKGENISLFPITFGRRPALAESPKTQPTPSVDSARERKEEQSYVNRVLHGSAASPPQMPNLNPSLISYDGSVFSATTVQPSPTSNIHNTPDHAQVLKSVFVENVGWASQLNSGAVWVQFNDGSQLVVQPGVSSIIYTAPNGQITRHGENDKLPEYIKSKLQCLSSILMLFASSSSR
As to B1, the percent of PLK4 condensates associated with MTs worked out at 95.4%.
